Results as given in patent US20210388087A1 (Chugai, published 2021).
Numbering of substitutions follows the chain as printed. Numbers in names are those of the source.

B1: CE115HA000 H35A one-arm antibody (antibody, human IgG1, kappa, L234A L235A, N297A, name in Kabat numbering)
heavy: QVQLVESGGGVVQPGRSLRLSCAASGFTFSNAWMAWVRQAPGKGLEWVAQIKAKSNNYATYYAESVKGRFTISRDDSKNSLYLQMNSLKTEDTAVYYCRYVHYGAYYGVDAWGQGTTVTVSSASTKGPSVFPLAPSSKSTSGGTAALGCLVKDYFPEPVTVSWNSGALTSGVHTFPAVLQSSGLYSLSSVVTVPSSSLGTQTYICNVNHKPSNTKVDKKVEPKSCDKTHTCPPCPAPEAAGGPSVFLFPPKPKDTLMISRTPEVTCVVVDVSHEDPEVKFNWYVDGVEVHNAKTKPREEQYASTYRVVSVLTVLHQDWLNGKEYKCKVSNKALPAPIEKTISKAKGQPREPQVYTLPPSRCELTKNQVSLSCAVKGFYPSDIAVEWESNGQPENNYKTTPPVLDSDGSFFLVSKLTVDKSRWQQGNVFSCSVMHEALHNHYTQKSLSLSPDYKDDDDK
chain: EPKSSDKTHTCPPCPAPELLGGPSVFLFPPKPKDTLMISRTPEVTCVVVDVSHEDPEVKFNWYVDGVEVHNAKTKPREEQYNSTYRVVSVLTVLHQDWLNGKEYKCKVSNKALPAPIEKTISKAKGQPREPQVCTLPPSRDELTKNQVSLWCLVKGFYPSDIAVEWESNGQPENNYKTTPPVLDSDGSFFLYSKLTVDKSRWQQGNVFSCSVMHEALHNRYTQKSLSLSP
light: DIVMTQSPLSLPVTPGEPASISCRSSQSLVHSNRNTYLHWYQQKPGQAPRLLIYKVSNRFSGVPDRFSGSGSGTDFTLKISRVEAEDVGVYYCGQGTQVPYTFGQGTKLEIKRTVAAPSVFIFPPSDEQLKSGTASVVCLLNNFYPREAKVQWKVDNALQSGNSQESVTEQDSKDSTYSLSSTLTLSKADYEKHKVYACEVTHQGLSSPVTKSFNRGEC
B2: CE115HA000 A60D one-arm antibody (antibody, human IgG1, kappa, L234A L235A, N297A, name in Kabat numbering)
heavy: B1 heavy with A35H, A63D
chain: B1 chain
light: B1 light
B3: CE115HA000 A56D one-arm antibody (antibody, human IgG1, kappa, L234A L235A, N297A, name in Kabat numbering)
heavy: B1 heavy with A35H, A59D
chain: B1 chain
light: B1 light
B4: CE115HA000 A99F one-arm antibody (antibody, human IgG1, kappa, L234A L235A, N297A, name in Kabat numbering)
heavy: B1 heavy with A35H, A105F
chain: B1 chain
light: B1 light
B5: CE115HA000 A56Q one-arm antibody (antibody, human IgG1, kappa, L234A L235A, N297A, name in Kabat numbering)
heavy: B1 heavy with A35H, A59Q
chain: B1 chain
light: B1 light
B6: CE115HA000 A56Y one-arm antibody (antibody, human IgG1, kappa, L234A L235A, N297A, name in Kabat numbering)
heavy: B1 heavy with A35H, A59Y
chain: B1 chain
light: B1 light
B7: CE115HA000 A52aP one-arm antibody (antibody, human IgG1, kappa, L234A L235A, N297A, name in Kabat numbering)
heavy: B1 heavy with A35H, A53P
chain: B1 chain
light: B1 light
B8: CE115HA000 A52aV one-arm antibody (antibody, human IgG1, kappa, L234A L235A, N297A, name in Kabat numbering)
heavy: B1 heavy with A35H, A53V
chain: B1 chain
light: B1 light
B9: CE115HA000 A32Y one-arm antibody (antibody, human IgG1, kappa, L234A L235A, N297A, name in Kabat numbering)
heavy: B1 heavy with A32Y, A35H
chain: B1 chain
light: B1 light
B10: CE115HA000 A60E one-arm antibody (antibody, human IgG1, kappa, L234A L235A, N297A, name in Kabat numbering)
heavy: B1 heavy with A35H, A63E
chain: B1 chain
light: B1 light
B11: CE115HA000 A52aE one-arm antibody (antibody, human IgG1, kappa, L234A L235A, N297A, name in Kabat numbering)
heavy: B1 heavy with A35H, A53E
chain: B1 chain
light: B1 light
B12: CE115HA000 A52aG one-arm antibody (antibody, human IgG1, kappa, L234A L235A, N297A, name in Kabat numbering)
heavy: B1 heavy with A35H, A53G
chain: B1 chain
light: B1 light
B13: CE115HA000 A99K one-arm antibody (antibody, human IgG1, kappa, L234A L235A, N297A, name in Kabat numbering)
heavy: B1 heavy with A35H, A105K
chain: B1 chain
light: B1 light
B14: CE115HA000 A52aY one-arm antibody (antibody, human IgG1, kappa, L234A L235A, N297A, name in Kabat numbering)
heavy: B1 heavy with A35H, A53Y
chain: B1 chain
light: B1 light
B15: CE115HA000 A52aD one-arm antibody (antibody, human IgG1, kappa, L234A L235A, N297A, name in Kabat numbering)
heavy: B1 heavy with A35H, A53D
chain: B1 chain
light: B1 light
B16: CE115HA000 A56G one-arm antibody (antibody, human IgG1, kappa, L234A L235A, N297A, name in Kabat numbering)
heavy: B1 heavy with A35H, A59G
chain: B1 chain
light: B1 light
B17: CE115HA000 A56L one-arm antibody (antibody, human IgG1, kappa, L234A L235A, N297A, name in Kabat numbering)
heavy: B1 heavy with A35H, A59L
chain: B1 chain
light: B1 light
B18: CE115HA000 A56K one-arm antibody (antibody, human IgG1, kappa, L234A L235A, N297A, name in Kabat numbering)
heavy: B1 heavy with A35H, A59K
chain: B1 chain
light: B1 light
B19: CE115HA000 A99D one-arm antibody (antibody, human IgG1, kappa, L234A L235A, N297A, name in Kabat numbering)
heavy: B1 heavy with A35H, A105D
chain: B1 chain
light: B1 light
B20: CE115HA000 A52aS one-arm antibody (antibody, human IgG1, kappa, L234A L235A, N297A, name in Kabat numbering)
heavy: B1 heavy with A35H, A53S
chain: B1 chain
light: B1 light
B21: CE115HA000 A56N one-arm antibody (antibody, human IgG1, kappa, L234A L235A, N297A, name in Kabat numbering)
heavy: B1 heavy with A35H, A59N
chain: B1 chain
light: B1 light

What follows are binders tested against T1, CD3 epsilon homodimer protein (UniProt P07766 23-126) (assay: SPR (Biacore T200), CD3 epsilon homodimer on CM4 chip, one-arm antibody as analyte, 25 C;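 note: homodimer attached to the sensor surface via amine coupling, HBS-EP+ used as running buffer during binding runs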).
T1 construct: immobilized on Sensor chip CM4 by amine coupling; also called CD3 (CD3 epsilon)
T1 sequence (P07766 23-126): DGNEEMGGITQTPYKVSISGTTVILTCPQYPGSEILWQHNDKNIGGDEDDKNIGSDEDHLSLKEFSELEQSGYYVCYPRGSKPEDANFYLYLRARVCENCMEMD

Point of comparison: B19, “ratio of amounts bound (altered form / CE115HA000)” value 0.28. Against it:
- B1 — lower, 0.17
- B2 — higher, 0.99
- B3 — higher, 0.51
- B4 — higher, 1.43
- B5 — higher, 0.76
- B6 — higher, 0.66
- B7 — lower, 0.15
- B8 — higher, 0.52
- B9 — higher, 0.33
- B10 — higher, 0.94
- B11 — higher, 0.57
- B12 — higher, 0.81
- B13 — higher, 1.48
- B14 — higher, 0.31
- B15 — higher, 1.34
- B16 — higher, 0.61
- B17 — higher, 0.8
- B18 — higher, 1.35
- B20 — higher, 1.05
- B21 — higher, 0.87
